The target in this assay is SARS-CoV-2 spike (two-proline stabilized S-2P extracellular domain fused to foldon) (SARS-CoV-2) (UniProt P0DTC2).

“And” between values parts separate entries of the source, which are not always exact repeats. Equal values may be shown once.

In the case of antibody S309 (Pinto et al., 2020), the Kd was 7 nM and 20 nM.

The Kd is the free concentration of one partner at which half of the binding sites on the other are occupied at equilibrium, for simple one-to-one binding. A higher Kd goes with a looser complex.

Values taken from patent US20240294611A1.
